The target in experiment [1] is T1, Aβ(1-42) globulomer (human).
T1 construct: the definition mentions n=12-14 for late assembly forms; also called human A-beta oligomer antigen (1-42); Aβ(1-42) globular oligomer
Nature of the experiment: competition ELISA, Expt. 2: unlabelled antibody against biotinylated Mu8F5 on coated human A-beta oligomer antigen (1-42). On the procedure:
(§1) MaxiSorp ELISA plates (Nalge Nunc International) were coated overnight at 4° C. with 100 μl/well of 5.0 μg/ml human A-beta oligomer antigen (1-42) (Abbott Biosciences Corporation, Worcester, Mass.) in PBS, washed with Wash Buffer (PBS containing 0.1% Tween 20), and blocked for 1 hr at room temperature with 340 μl/well of SuperBlock Blocking Buffer in PBS (Pierce Chemical Company). After washing with Wash Buffer, a mixture of biotinylated Mu8F5 (1.0 μg/ml final concentration) and competitor antibody (Mu8F5 or Hu8F5 starting at 27 μg/ml final concentration and serially diluted 3-fold) in 100 μl/well of 5% Superblock Blocking Buffer in PBS was added in triplicate. As a no-competitor control, 100 μl/well of 5% Superblock Blocking Buffer in PBS was used. After incubating the plates for 2 hrs at room temperature, and washing with Wash Buffer, bound antibodies were detected using 100 μl/well of 1 μg/ml HRP-conjugated streptavidin (Pierce Chemical Company) in 5% Superblock Blocking Buffer in PBS. After incubating for 30 min at room temperature, and washing with Wash Buffer, color development was performed by adding 100 μl/well of ABTS Peroxidase Substrate/Peroxidase Solution B (KPL). […] Absorbance was read at 415 nm.
(§2) The affinity of Hu8F5 to human A-beta oligomer antigen (1-42) was analyzed by competition ELISA as described in Materials and Methods. […]
(In general: ELISA stands for enzyme-linked immunosorbent assay.)

For experiment [2], the target named is T1, Aβ(1-42) globulomer. Nature of the experiment: competition ELISA, Expt. 3: unlabelled antibody against biotinylated Mu8F5 on coated human A-beta oligomer antigen (1-42). As for the experimental part:
as §1, §2

Experiment [3] addresses T1, Aβ(1-42) globulomer. The experiment in a line: competition ELISA, Expt. 1: unlabelled antibody against biotinylated Mu8F5 (1.0 µg/ml) on coated human A-beta oligomer antigen (1-42). On the procedure:
as §1, §2

Experiment [4] concerns the target T1, Aβ(1-42) globulomer. The experiment in a line: competition ELISA, average of 3 experiments: unlabelled antibody against biotinylated Mu8F5 on coated human A-beta oligomer antigen (1-42). On the procedure:
as §1, §2

Experiment [5] deals with T1, Aβ(1-42) globulomer. Nature of the experiment: competition ELISA, Expt. 1: competitor against biotinylated Mu8F5 on coated human A-beta oligomer antigen (1-42). On the procedure: as §1, §2
Experiment [6] concerns the target T1, Aβ(1-42) globulomer. The experiment in a line: competition ELISA, Expt. 2: competitor against biotinylated Mu8F5 on coated human A-beta oligomer antigen (1-42). On the procedure: as §1, §2
Experiment [7] deals with T1, Aβ(1-42) globulomer. Nature of the experiment: competition ELISA, Expt. 3: competitor against biotinylated Mu8F5 on coated human A-beta oligomer antigen (1-42). On the procedure:
as §1, §2

The target of experiment [8] is T1, Aβ(1-42) globulomer. The experiment in a line: competition ELISA, average of 3 experiments: competitor against biotinylated Mu8F5 on coated human A-beta oligomer antigen (1-42). On the procedure: as §1, §2
Experiment [9] deals with T1, Aβ(1-42) globulomer. Nature of the experiment: dot blot densitometry; reference: Aβ(1-40) monomer. As for the experimental part: (§3) The dot blot was developed with a development solution made from 1 tablet of NBT/BCIP (Roche) dissolved in 20 mL H₂O for 5 min. The development was stopped by intense washing of the dot blot with H₂O. Quantitative evaluation was done using a densitometric analysis (GS800 densitometer (BioRad) and software package Quantity one, Version 4.5.0 (BioRad)) of the dot-intensity. Only the dots for 10 pmol Aβ antigen were evaluated. Results for the Discrimination of Aβ Monomer Against Aβ Globulomer by Dot Blot Method: Comparison of 8F5hum8 Versus 4G8.
(§4) The humanized monoclonal antibody 8F5hum8 (0.2 μg/ml) were used for detection with an anti-human IgG coupled to alkaline phosphatase as secondary antibody and the staining reagent NBT/BCIP (Roche Diagnostics, Mannheim). The detection signal was analyzed in its intensity (reflective density=RD) via a densitometer (GS 800, Biorad, Hercules, Calif., USA) at an antigen concentration of 10 pmol. At this concentration for every Aβ-form, the measured reflective density was in the linear range of the densitometer detection.
(§5) Discrimination of anti-Aβ-antibodies of Aβ1-40 monomer and Aβ1-42 monomer. The discrimination was calculated as the ratio of detection signal of Aβ1-42 globulomer and Aβ1-42 monomer, respectively Aβ1-40 monomer.

Experiment [10] concerns the target T1, Aβ(1-42) globulomer. Nature of the experiment: dot blot densitometry; reference: Aβ(1-42) monomer. On the procedure: as §3, §4, §5
Experiment [11] deals with T2, Aβ(1-42) monomer, HFIP pretreated (human).
T2 construct: Human Aβ(1-42), Bachem H-1368, monomer preparation in Pluronic F68 buffer; also called Aβ42 monomer
T2 sequence (peptide, as listed by the source): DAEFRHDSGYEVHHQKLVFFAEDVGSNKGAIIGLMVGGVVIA
Nature of the experiment: dot blot, 10 pmol antigen on nitrocellulose, 0.2 µg/ml antibody, densitometry. As for the experimental part:
as §3, §4

Experiment [12] addresses T3, Aβ(1-40) monomer (human).
T3 construct: Human Aβ(1-40), Bachem H-1194, HFIP treated and dissolved in DMSO; also called Aβ40
The experiment is described as above. On the procedure:
as §3, §4

Experiment [13] concerns the target T1, Aβ(1-42) globulomer. The experiment is described as above. On the procedure: as §3, §4

T3 sequence (peptide, as listed by the source): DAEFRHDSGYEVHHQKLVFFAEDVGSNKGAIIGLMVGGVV

B1: murine monoclonal antibody 8F5 (antibody, V domains shown)
VH: EVQLVESGGGLVQPGGSLKLSCAASGFTFSSYGMSWVRQTPDKRLELVASINSNGGSTYYPDSVKGRFTISRDNAKNTLYLQMSSLKSEDTAMYYCASGDYWGQGSTLTVSS
VL: DVVMTQTPLSLPVSLGDQASISCRSSQSLVYSNGDTYLHWYLQKPGQSPKLLIYKVSNRFSGVPDRFSGSGSGTDFTLKISRVEAEDLGVYFCSQSTHVPWTFGGGTKLEIK
notes: Mouse monoclonal antibody; also called Mu8F5; mouse 8F5 antibody
Consider B1, for which the IC50 (usually the midpoint of a concentration-inhibition curve) in [1] came to 4.87 µg/mL; in experiment [2] it was 5.81 µg/mL; in [3], 4.58 µg/mL; in experiment [4] it was 5.08 µg/mL.

B2: Hu8F5v1 (humanized 8F5, heavy chain version 1) (antibody, V domains shown)
VH: EVQLVESGGGLVQPGGSLRLSCAASGFTFSSYGMSWVRQAPGKGLEWVASINSNGGSTYYPDSVKGRFTISRDNAKNTLYLQMNSLRAEDTAVYYCASGDYWGQGTLVTVSS
VL: DIVMTQSPLSLPVTPGEPASISCRSSQSLVYSNGDTYLHWYLQKPGQSPKLLIYKVSNRFSGVPDRFSGSGSGTDFTLKISRVEAEDVGVYYCSQSTHVPWTFGGGTKVEIK
notes: Human IgG1/kappa, expressed in 293T/17 cells from modified pVg1.D.Tt (gamma-1 changed to z, non-a allotype: D356E, L358M, EU index) and pVk; also called Hu8F5VHv1 + Hu8F5VL
For B2, the IC50 came out at 6.28 µg/mL in experiment [5], 6.85 µg/mL in experiment [6], 5.93 µg/mL in [7] and 6.36 µg/mL in experiment [8].

B3: Hu8F5v2 (humanized 8F5, heavy chain version 2) (antibody, human IgG1, V domains shown)
VH: EVQLVESGGGLVQPGGSLRLSCAASGFTFSSYGMSWVRQAPGKGLELVASINSNGGSTYYPDSVKGRFTISRDNAKNTLYLQMNSLRAEDTAVYYCASGDYWGQGTLVTVSS
VL: DIVMTQSPLSLPVTPGEPASISCRSSQSLVYSNGDTYLHWYLQKPGQSPKLLIYKVSNRFSGVPDRFSGSGSGTDFTLKISRVEAEDVGVYYCSQSTHVPWTFGGGTKVEIK
notes: Human IgG1/kappa, as for Hu8F5v1; The heavy chain differs from version 1 by the additional mouse residue at position 47 (W47L mutation of the Hu8F5VH gene); also called Hu8F5VHv2 + Hu8F5VL
For the molecule B3, the IC50 in experiment [5] was found to be 6.29 µg/mL; in [6] it was 8.12 µg/mL; in experiment [7], 6.56 µg/mL; in experiment [8], 6.99 µg/mL.

B4: humanized monoclonal antibody 8F5hum8 (antibody, V domains shown)
VH: EVQLVESGGGLVQPGGSLRLSCAASGFTFSSYGMSWVRQAPGKGLELVASINSNGGSTYYPDSVKGRFTISRDNAKNTLYLQMNSLRAEDTAVYYCASGDYWGQGTLVTVSS
VL: DIVMTQSPLSLPVTPGEPASISCRSSQSLVYSNGDTYLHWYLQKPGQSPKLLIYKVSNRFSGVPDRFSGSGSGTDFTLKISRVEAEDVGVYYCSQSTHVPWTFGGGTKVEIKR
notes: It was detected with anti-human IgG; also called humanized antibody 8F5; mMAb 8F5hum8
As to B4, the “Ratio RD Aβ(1-42) globulomer/RD Aβ(1-40) monomer” value in [9] is 59. The “Ratio RD Aβ(1-42) globulomer/RD Aβ(1-42) monomer” value in [10] amounted to 1.6. In addition, the figures for the “Reflective Density (RD) [10 pmol]” value in experiment [11], in experiment [12] and in [13] were 1.3 RD, 0.04 RD and 2.2 RD, respectively.

These data come from patent publication US20090232801A1 (ABBOT LABORATORIES, published 2009).
